According to patent US20230212258A1 (MCMASTER UNIVERSITY, published 2023):
Positions count from the first letter of the chain named. Numbers in names are those of the source.

Columns and labels:
Her2Fc [1] = target: T1, Her2Fc (UniProt P04626 23-652, limits assumed); test: flow cytometry, transduced T cells incubated with Her2Fc (FIG. 2)
T1 construct: It is printed both as Her2Fc and as FcHer2; also called FcHer2; FcHer2 antigen; not shown: Fc part
Method: T-cells had been incubated with Her2Fc, which later was detected via flow cytometry. The presented data was gated on CD8+ lymphocytes. The shown gates were chosen based on the untransduced control.

Her2Fc [2] = target: T1, Her2Fc; test: flow cytometry, engineered PBMC, NGFR marker and FcHer2 (FIG. 16B)
Lck = Lck (UniProt P06239 2-509, limits assumed); test: pull-down from 293TM lysates on Her2 antigen beads, western blot for Lck
Sequence of Lck (P06239 2-509 limits assumed): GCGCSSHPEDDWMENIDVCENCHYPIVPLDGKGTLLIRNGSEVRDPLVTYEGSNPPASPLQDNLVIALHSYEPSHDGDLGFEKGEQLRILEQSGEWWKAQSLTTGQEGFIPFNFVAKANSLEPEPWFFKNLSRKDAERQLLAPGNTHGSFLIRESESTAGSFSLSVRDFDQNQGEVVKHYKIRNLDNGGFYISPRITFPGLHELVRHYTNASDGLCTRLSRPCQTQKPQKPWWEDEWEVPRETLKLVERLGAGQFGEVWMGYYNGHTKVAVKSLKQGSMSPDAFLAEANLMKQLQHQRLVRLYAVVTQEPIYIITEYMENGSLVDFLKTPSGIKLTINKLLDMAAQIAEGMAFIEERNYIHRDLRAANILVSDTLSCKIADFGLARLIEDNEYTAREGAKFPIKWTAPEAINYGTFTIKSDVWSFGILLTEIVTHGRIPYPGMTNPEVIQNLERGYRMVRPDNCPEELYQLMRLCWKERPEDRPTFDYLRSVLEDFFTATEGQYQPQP
Method: In FIG. 13A, Her2 antigen was covalently attached to magnetic beads. […] Beads were incubated with cell lysates over night and subsequently washed and western blotted. Lck was detected using an Lck antibody, TACs were detected via Myc antibody. […] Signal was corrected relative to the negative control.

B1: N-Darpin Tri-TAC (receptor)
chain: MSRGSDLGKKLLEAARAGQDDEVRILMANGADVNAKDEYGLTPLYLATAHGHLEIVEVLLKNGADVNAVDAIGFTPLHLAAFIGHLEIAEVLLKHGADVNAQDKFGKTAFDISIGNGNEDLAEILQKLNEQKLISEEDLNPGGGGGSGGGGSGGGGSGGGGSGSMDIQMTQTTSSLSASLGDRVTISCRASQDIRNYLNWYQQKPDGTVKLLIYYTSRLHSGVPSKFSGSGSGTDYSLTISNLEQEDIATYFCQQGNTLPWTFAGGTKLEIKGGGGSGGGGSGGGGSGGGGSEVQLQQSGPELVKPGASMKISCKASGYSFTGYTMNWVKQSHGKNLEWMGLINPYKGVSTYNQKFKDKATLTVDKSSSTAYMELLSLTSEDSAVYYCARSGYYGDSDWYFDVWGQGTTLTVFSTSGGGGSLESGQVLLESNIKVLPTWSTPVQPMALIVLGGVAGLLLFIGLGIFFCVRCRHRRRQAERMSQIKRLLSEKKTCQCPHRFQKTCSPI
notes: Chimeric receptor expressed on engineered human T cells (in 293TM cells for the pull-down); also called full length CD4-TAC
B1: binds (Her2Fc [1]).

B2: CD4 TAC A85V, T161P mutant (receptor)
chain: B1 chain with A249V, T325P
notes: CD4 TAC with the mutated UCHT1 domain; also called UCHT1 (A85V, T161P)
B2: binds (Her2Fc [2]).

B3: CD4 TAC -cytosol (receptor)
chain: MSRGSDLGKKLLEAARAGQDDEVRILMANGADVNAKDEYGLTPLYLATAHGHLEIVEVLLKNGADVNAVDAIGFTPLHLAAFIGHLEIAEVLLKHGADVNAQDKFGKTAFDISIGNGNEDLAEILQKLNEQKLISEEDLNPGGGGGSGGGGSGGGGSGGGGSGSMDIQMTQTTSSLSASLGDRVTISCRASQDIRNYLNWYQQKPDGTVKLLIYYTSRLHSGVPSKFSGSGSGTDYSLTISNLEQEDIATYFCQQGNTLPWTFAGGTKLEIKGGGGSGGGGSGGGGSGGGGSEVQLQQSGPELVKPGASMKISCKASGYSFTGYTMNWVKQSHGKNLEWMGLINPYKGVSTYNQKFKDKATLTVDKSSSTAYMELLSLTSEDSAVYYCARSGYYGDSDWYFDVWGQGTTLTVFSTSGGGGSLESGQVLLESNIKVLPTWSTPVQPMALIVLGGVAGLLLFIGLGIFF
notes: It was detected through its Myc tag in the pull-down; also called TAC cytosolic deletion variant; cytosolic deletion
B3: no binding (Lck).
